Columns and labels:
[1] = target: 1059-SOSIP soluble Env trimer produced in FreeStyle 293 F cells (HIV-1 1059); assay: SEC; HiLoad 16/600 Superdex 200 pg column after GNA lectin affinity purification; trimeric fractions taken
[2] = target: 1059-SOSIP soluble Env trimer produced in HEK293 cells grown in BalanCD medium (HIV-1 1059); assay: as above

| Substance | stoichiometry N [1] | stoichiometry N [2] |
| --- | --- | --- |
| 1059-SOSIP soluble Env trimer produced in FreeStyle 293 F cells (domain or fragment) | 3 | – |
| 1059-SOSIP soluble Env trimer produced in HEK293 cells grown in BalanCD medium (domain or fragment) | – | 3 |

— paper PMC12645962
